Source: the supplement of paper PMC7877785
± gives the uncertainty stated by the source.

Assay: self-splicing fitness, log relative to wild type (ln ratio); higher = more splicing; Tetrahymena group I intron in knt gene, E. coli kanamycin selection, DiMSum; sequences stand for … in CUCUCU…GGAGGGAAAAGUUAUCAGGCAUGCACCUGGUAGCUAGUCUUUAAACCAAUAGAUUGCAUCGGUUUAAAAGGCAAGACCGUCAAAUUGCGGGAAAGGGGUCAACAGCCGUUCAGUACCAAGUCUCAGGGGAAACUUUGAGAUGGCCUUGCAAAGGGUAUGGUAAUAAGCUGACGGACAUGGUCCUAACCACGCAGCCAAGUCCUAAGUCAACAGAUCUUCUGUUGAUAUGGAUGCAGUUCACAGACUAAAUGUCGGUCGGGGAAGAUGUAUUCUUCUCAUAAGAUAUAGUCGGACCUCUCCUUAAUGGGAGCUAGCGGAUGAAGUGAUGCAACACUGGAGCCGCUGGGAACUAAUUUGUAUGCGAAAGUAUAUUGAUUAGUUUUGGAGUACUCGUGGUCG
Method in brief: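 Six replicate transformations of E. coli BL21(DE3) with a pET-22b(+) library were grown overnight at 37°C or 30°C. The library randomised all eight P1ex-region intron nucleotides, the intron lying in the knt kanamycin-resistance gene, and plates were LB agar with or without 25 μg/mL kanamycin plus 100 μg/mL carbenicillin, 50 μM IPTG and 0.2% rhamnose. Pooled colonies were amplicon-sequenced on an Illumina HiSeq 2500, and fitness is the DiMSum error-weighted combination of wild-type-normalised replicate fold changes, kanamycin versus none.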

| Sequence | self-splicing fitness (ln) (30 °C) | self-splicing fitness (ln) (37 °C) |
| --- | --- | --- |
| CAAGAGCAAUAUUACGUUAA | -3.49 ± 0.35 | -2.33 ± 0.22 |
| CAAGAGCAAUAUUACGUUGG | -2.67 ± 0.13 | -1.78 ± 0.12 |
| CAAUAGCAAUAUUACGAAGU | -3.76 ± 0.15 | -2.64 ± 0.15 |
| CAAUAGCAAUAUUACGAGCA | -2.05 ± 0.34 | -0.415 ± 0.3 |
| CAAUAGCAAUAUUACGAGCG | -0.254 ± 0.077 | 0.281 ± 0.098 |
| CAAUAGCAAUAUUACGAGUC | -4.09 ± 0.34 | -2.75 ± 0.28 |
| CAAUAGCAAUAUUACGCAAC | -3.75 ± 0.34 | -1.91 ± 0.39 |
| CAAUAGCAAUAUUACGCAAU | -3.23 ± 0.34 | -2.09 ± 0.28 |
| CAAUAGCAAUAUUACGCCCG | -0.472 ± 0.17 | -0.0129 ± 0.23 |
| CAAUAGCAAUAUUACGCGCA | -2.68 ± 0.19 | -1.7 ± 0.18 |
| CAAUAGCAAUAUUACGCGCU | -3.61 ± 0.18 | -2.18 ± 0.18 |
| CAAUAGCAAUAUUACGCGGC | -3.91 ± 0.37 | – |
| CAAUAGCAAUAUUACGCGUA | -2.09 ± 0.18 | -1.85 ± 0.23 |
| CAAUAGCAAUAUUACGCGUU | -2.98 ± 0.09 | -2.42 ± 0.1 |
| CAAUAGCAAUAUUACGGAGC | -2.48 ± 0.22 | -2.53 ± 0.45 |
| CAAUAGCAAUAUUACGGAUC | -3.15 ± 0.37 | – |
| CAAUAGCAAUAUUACGGGCA | -2.46 ± 0.28 | -2.89 ± 0.25 |
| CAAUAGCAAUAUUACGGUGC | -3.75 ± 0.23 | -3.67 ± 0.29 |
| CAAUAGCAAUAUUACGUAAA | -2.68 ± 0.28 | -2.27 ± 0.4 |
| CAAUAGCAAUAUUACGUACG | -0.451 ± 0.063 | -0.069 ± 0.078 |
| CAAUAGCAAUAUUACGUCAC | -2.04 ± 0.2 | -2.71 ± 0.43 |

| Sequence | self-splicing fitness (ln) (30 °C) | self-splicing fitness (ln) (37 °C) |
| --- | --- | --- |
| CAAUAGCAAUAUUACGUGAC | -3.84 ± 0.25 | -2.21 ± 0.22 |
| CAAUAGCAAUAUUACGUGCA | -2.72 ± 0.19 | -1.27 ± 0.15 |
| CAAUAGCAAUAUUACGUGUC | -3.97 ± 0.18 | -3.28 ± 0.21 |
| CAAUAGCAAUAUUACGUUAA | -2.95 ± 0.18 | -2.8 ± 0.23 |
| CACAAGCAAUAUUACGAGAC | -3.08 ± 0.17 | -2.51 ± 0.17 |
| CACAAGCAAUAUUACGAGAG | -3.2 ± 0.12 | -1.32 ± 0.085 |
| CACAAGCAAUAUUACGAUAA | -4.26 ± 0.33 | -2.22 ± 0.16 |
| CACAAGCAAUAUUACGAUCA | -2.43 ± 0.11 | -1.55 ± 0.12 |
| CACAAGCAAUAUUACGCAAA | -3.29 ± 0.23 | -2.46 ± 0.28 |
| CACAAGCAAUAUUACGCACG | -0.378 ± 0.067 | -0.684 ± 0.075 |
| CACAAGCAAUAUUACGCGGC | -3.25 ± 0.19 | -2.98 ± 0.23 |
| CACAAGCAAUAUUACGCGGG | -3 ± 0.14 | -0.984 ± 0.12 |
| CACAAGCAAUAUUACGCUUG | -3.66 ± 0.18 | -1.77 ± 0.15 |
| CACAAGCAAUAUUACGGAAU | -4.1 ± 0.21 | -2.28 ± 0.16 |
| CACAAGCAAUAUUACGGCCC | -2.49 ± 0.22 | -1.82 ± 0.31 |
| CACAAGCAAUAUUACGGCUA | -2.02 ± 0.12 | -1.26 ± 0.11 |
| CACAAGCAAUAUUACGGGAG | -1.55 ± 0.065 | -1.46 ± 0.076 |
| CACAAGCAAUAUUACGGUCG | 0.139 ± 0.054 | 0.219 ± 0.064 |
| CACAAGCAAUAUUACGGUCU | -2.76 ± 0.1 | -1.99 ± 0.12 |
| CACAAGCAAUAUUACGUACA | -3.03 ± 0.1 | -1.46 ± 0.1 |
| CACAAGCAAUAUUACGUAGC | -4 ± 0.12 | -2.59 ± 0.13 |
